Data on one substance can be found in US20190382463A1.

A word on the Kd: it is the concentration at which binding is half-saturated.

In this experiment the target is human type 1 insulin-like growth factor receptor (human) (UniProt P08069). Kind of experiment: competitive displacement assay, plate capture of solubilized receptor (tracer for IGF-1R not stated).

Take “KP-insulin ([Lys^B28, Pro^B29]-insulin, insulin Lispro) (ligand; other documents disagree on this pair)”: the Kd came out at 5 nM.
